The target of experiment [1] is MPER-GlpF fusion protein (E. coli (GlpF); HIV-1 (gp41 MPER epitope)). Put plainly: size exclusion chromatography, complex against GlpF alone. In general terms: Size exclusion chromatography separates by hydrodynamic size, large species first.
Experiment [2] has as its target MPER-Fluc-Bpe fusion protein (Bordetella pertussis (Fluc-Bpe); HIV-1 (gp41 MPER epitope)). In words: gel filtration chromatography, complex against fusion protein alone.
Experiment [3] has as its target MPER-AdiC fusion protein (Salmonella enterica (AdiC); HIV-1 (gp41 MPER epitope)) (UniProt P60065). In words: gel filtration chromatography, complex against AdiC alone.
Experiment [4] shares this target.
For experiment [5], the target named is MPER-Fluc-Bpe fusion protein (Bordetella pertussis (Fluc-Bpe); HIV-1 (gp41 MPER epitope)). Put plainly: negative stain EM 2-D class averages, 1 dimer:0.3 Fab molar ratio.

With 10E8v4 Fab fragment, the elution volume shift in experiment [1] was determined as 1 mL; in experiment [3], 0.5 mL. The shift in the retention time in experiment [2] was 2 mL. Also, the stoichiometry (Fab per AdiC dimer) (Fab per AdiC dimer) in experiment [4] came out at 1.

For the substance VRC42 Fab fragment, in experiment [5], the percent of total particles in the doubly-occupied class stood at 2.5%.

These data come from US20230174629A1.
